Substitutions are numbered along the chain they refer to. Read-outs that look alike come from different tables or passages of the source.

The source of these data is patent publication US20120269814A1 (Amgen, published 2012).

In assay [1] the target is T1, human c-Mpl (full length, on cells) (human, UniProt P40238 26-635).
T1 sequence: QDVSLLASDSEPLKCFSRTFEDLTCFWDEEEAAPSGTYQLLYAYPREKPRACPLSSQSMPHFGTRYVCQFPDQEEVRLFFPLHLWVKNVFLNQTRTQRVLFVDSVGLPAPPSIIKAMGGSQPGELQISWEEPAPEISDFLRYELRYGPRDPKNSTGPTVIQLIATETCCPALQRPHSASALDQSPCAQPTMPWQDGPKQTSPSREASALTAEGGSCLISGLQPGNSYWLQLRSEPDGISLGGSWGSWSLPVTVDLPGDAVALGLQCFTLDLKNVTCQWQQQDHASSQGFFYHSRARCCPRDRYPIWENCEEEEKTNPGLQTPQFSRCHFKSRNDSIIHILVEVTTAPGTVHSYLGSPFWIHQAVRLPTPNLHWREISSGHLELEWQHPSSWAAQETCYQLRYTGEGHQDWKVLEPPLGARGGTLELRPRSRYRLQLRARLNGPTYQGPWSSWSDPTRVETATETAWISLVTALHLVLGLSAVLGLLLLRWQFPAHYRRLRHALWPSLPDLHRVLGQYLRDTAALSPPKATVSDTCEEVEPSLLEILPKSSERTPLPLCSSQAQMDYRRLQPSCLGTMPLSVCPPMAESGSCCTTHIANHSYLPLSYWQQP
Kind of assay: cell-based or functional assay.

In another assay the target is T2, rhu-c-Mpl (AA1-490-6H) (human, UniProt P40238 26-490).
T2 construct: Entire 490 amino acid extracellular domain with six C-terminal histidines, expressed in CHO cells; also called recombinant human c-Mpl protein; soluble c-Mpl
T2 sequence: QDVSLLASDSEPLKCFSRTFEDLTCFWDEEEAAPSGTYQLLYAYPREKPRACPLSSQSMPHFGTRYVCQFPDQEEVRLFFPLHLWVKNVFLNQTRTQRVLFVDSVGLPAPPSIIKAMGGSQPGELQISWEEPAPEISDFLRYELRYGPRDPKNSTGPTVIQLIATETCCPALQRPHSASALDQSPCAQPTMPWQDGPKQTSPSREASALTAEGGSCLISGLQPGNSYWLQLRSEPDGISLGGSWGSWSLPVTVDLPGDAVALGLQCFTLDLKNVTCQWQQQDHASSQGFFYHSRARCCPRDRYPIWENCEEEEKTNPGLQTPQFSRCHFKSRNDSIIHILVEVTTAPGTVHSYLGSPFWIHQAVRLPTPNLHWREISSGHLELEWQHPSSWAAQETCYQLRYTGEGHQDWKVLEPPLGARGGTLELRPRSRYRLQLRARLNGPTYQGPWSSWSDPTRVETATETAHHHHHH
Kind of assay: solution-equilibrium Biacore with soluble rhu-c-Mpl, KinExA Pro fit. Here is the method: The affinities of these anti-c-Mpl mAbs to the soluble c-Mpl protein were determined in a solution-based Biacore analysis. Briefly, a fixed amount of rhu-c-Mpl was incubated with various concentrations of anti-c-Mpl mAbs at room temperature for ˜4 hours before being run over the same anti-c-Mpl mAbs immobilized at high density on a CM5 surface. In this assay the binding signal is proportional to the concentration of free rhu-c-Mpl at equilibrium with a given antibody concentration. The dissociation equilibrium constant (KD) was obtained from nonlinear regression of the competition curves using an n-curve one-site homogeneous binding model (KinExATM Pro software).
A general note: SPR reads the build-up and loss of mass on a sensor chip optically.

In assay [2] the target is T1, human c-Mpl (full length, on cells). In words: cell-based or functional assay. The source holds these as a separate data set.

B1: mAb 1.75 (antibody, IgG2b, V domains shown)
VH: EVQLVESGGGLVQPKGSLKLSCAASGFSFNTYAMNWVRQAPGKGLEWIAHIRSKSNNFATYYADSVKDRFSISRDASENILFLQMNNLKTEDTAMYYCVRQGGDFPMDYWGQGTSVTVSS
VL: QIVLTQSPAIMSASPGEKVTISCSASSSVSYMYWYQQKPGSSPKPWIYRTSNLASGVPARFSGSGSGTSYSLTISNMEAEDAAAYYCQQYHSYPTTFGGGTKLEVK
notes: also called A2
As usually defined, the Kd is the equilibrium constant for the complex coming apart. High values mean a looser complex, low ones a tighter complex. Take B1: in assay [1], the “IC50 (nM), inhibition of rhuTPO (26 pM)-driven proliferation of 32D-hu-c-Mpl cells (CellTiter-Glo)” value (“IC50 (nM), inhibition of rhuTPO” for short) worked out at 0.05 nM. This molecule also yielded a Kd with rhu-c-Mpl (AA1-490-6H) of 0.01 nM.

B2: mAb 1.169 (antibody, IgG1, V domains shown)
VH: QVQLQQSGPELVKPGASVKISCKASGYGFSSSWMNWVKQRPGKGLEWIGRIYPGDGETSYNGEFKGKATLTADKSSSTAYMQLSSLTSEDSAVYFCASYYEGGYWGQGTLVTVSA
VL: DIVMTQAAPSLPVTPGESVSISCRSSKSLLHSNGNTYLFWFLQRPGQSPHLLIYRMSNLASGVPDRFSGSGSGTAFTLRISRVEAEDVGVYYCMQHLEYPYTFGGGTKLEIKR
notes: also called A6
In the case of B2, the “IC50 (nM), inhibition of rhuTPO” value in assay [2] turned out to be 5.32 nM. The Kd with rhu-c-Mpl (AA1-490-6H) is 0.48 nM.

B3: mAb 1.36 (antibody, IgG1, V domains shown)
VH: QVQLQQSGPELVKPGASVKISCKASGYGFSNSWMNWVRQRPGKGLEWIGRIYPGDGETSYNGEFVGKATLTADKSSSTAYMHLSSLTSEDSAVYFCASYYEGGYWGQGTLVTVS
VL: B2 VL with L11V, F39Y, H50Q
notes: also called A5
As to B3, the “IC50 (nM), inhibition of rhuTPO” value in assay [2] came to 1.25 nM. For the same molecule, the Kd with rhu-c-Mpl (AA1-490-6H) is 0.45 nM.

B4: mAb 1.78 (antibody, IgG1, V domains shown)
VH: B2 VH with I20M, G28A, M34L, K38R, T58N, S59H, E63K, A79G, V111I
VL: DIVMTQAAPSIPVTPGESVSISCRSDKSLLHSNGNTYLFWFLQRPGQSPQLLIYRMSNLASGVPDRFSGSGSGTAFTLRISGVEAEDVGVYYCMQHLEYPYTFGGGTKLEIK
notes: also called A3
On to B4, for which the “IC50 (nM), inhibition of rhuTPO” value in assay [2] came out at 0.23 nM. In addition, in the assay with rhu-c-Mpl (AA1-490-6H), the affinity, expressed as Kd, was 0.072 nM.

B5: mAb 1.111 (antibody, IgG1, V domains shown)
VH: DVQLQESGPGLVKPSQSLSLTCTVTGYSITIDYTWNWIRQFPGNKLEWMGYITYSGSTDYNPSLKSRSSITRDTSMNQFFLQLNSVTTEDTATYYCARLGRRYALDYWGQGTSVTVSS
VL: DIQMTQSSSSFSVSLGDRVTITCKASEDIYIRLAWYQQKPGNAPRLLISAATSLETGIPSRFSGSGSGEDYTLTITSLQTEDVATYYCQQYWTTPWTFGGGTKLEIKR
notes: also called A4
Consider B5, for which the “IC50 (nM), inhibition of rhuTPO” value in assay [1] was determined as 0.12 nM. The molecule also gave a Kd in the assay with rhu-c-Mpl (AA1-490-6H) of 0.036 nM.

B6: mAb 1.6 (antibody, IgG2b, V domains shown)
VH: B5 VH with I31S, D59S, S68N, M76K, A104T, L105M
VL: DIQMTQSSSSFSVSLGDRVTITCMASEDIYIRLAWYQQKPGNAPRLLISAATSLETGVPSRFSGSGSGKDYTLSITSLQTEDVGTYYCQQYWSSPWTFGGGTKLEIN
notes: An Alexa Fluor 647 conjugate was used for CD34+ cell staining; also called Ab 1.6.1; A1
As to B6, in assay [1], the “IC50 (nM), inhibition of rhuTPO” value turned out to be 0.03 nM. In the assay with rhu-c-Mpl (AA1-490-6H), this molecule returned a Kd of 0.036 nM.
